Drawing on US20110294738A1, “PTHR1 RECEPTOR COMPOUNDS” (priority 2008, published 2011), this text covers Fold Shift of EC50 and Inhibition of Maximal Response for 14 molecules.

In the experiment the target is PTHR1 receptor.

* marks the point of attachment. Palmitoyl = CCCCCCCCCCCCCCCC(=O)*

Sequence of PTHR1 receptor (P25961 whole entry): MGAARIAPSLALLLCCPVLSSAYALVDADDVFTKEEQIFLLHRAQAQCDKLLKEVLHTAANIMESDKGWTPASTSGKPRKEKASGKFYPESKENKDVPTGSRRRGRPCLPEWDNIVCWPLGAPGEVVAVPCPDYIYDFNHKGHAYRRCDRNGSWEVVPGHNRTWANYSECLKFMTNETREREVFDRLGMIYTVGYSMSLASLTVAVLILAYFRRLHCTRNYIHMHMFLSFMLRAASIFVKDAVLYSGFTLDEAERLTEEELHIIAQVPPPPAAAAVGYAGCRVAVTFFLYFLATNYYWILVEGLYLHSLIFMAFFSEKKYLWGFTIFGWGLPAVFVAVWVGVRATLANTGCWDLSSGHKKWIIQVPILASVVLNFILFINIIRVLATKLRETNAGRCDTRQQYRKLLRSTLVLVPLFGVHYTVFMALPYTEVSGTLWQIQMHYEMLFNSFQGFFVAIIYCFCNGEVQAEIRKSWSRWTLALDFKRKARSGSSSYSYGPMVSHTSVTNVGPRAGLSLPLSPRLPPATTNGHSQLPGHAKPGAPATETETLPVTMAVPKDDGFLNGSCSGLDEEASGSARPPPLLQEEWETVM

B1: Compound 3 (peptide)
peptide: Palmitoyl-LAYFRRLHSTRNY-NH2
SMILES: CCCCCCCCCCCCCCCC(=O)N[C@@H](CC(C)C)C(=O)N[C@@H](C)C(=O)N[C@@H](Cc1ccc(O)cc1)C(=O)N[C@@H](Cc1ccccc1)C(=O)N[C@@H](CCCNC(=N)N)C(=O)N[C@@H](CCCNC(=N)N)C(=O)N[C@@H](CC(C)C)C(=O)N[C@@H](Cc1c[nH]cn1)C(=O)N[C@@H](CO)C(=O)N[C@H](C(=O)N[C@@H](CCCNC(=N)N)C(=O)N[C@@H](CC(N)=O)C(=O)N[C@@H](Cc1ccc(O)cc1)C(N)=O)[C@@H](C)O
B1: the Fold Shift of EC50 is 0.7 fold and the Inhibition of Maximal Response was -51.4%.
Regarding Palmitoyl-LYLHSLIFMAFFSEKK-NH2 (not fully specified) [Compound 40], the Fold Shift of EC50 was 1.5 fold and the Inhibition of Maximal Response worked out at 28.3%.

B2: Compound 62 (peptide)
peptide: Palmitoyl-RETNAGRSDTRQQY-NH2
SMILES: CCCCCCCCCCCCCCCC(=O)N[C@@H](CCCNC(=N)N)C(=O)N[C@@H](CCC(=O)O)C(=O)N[C@H](C(=O)N[C@@H](CC(N)=O)C(=O)N[C@@H](C)C(=O)NCC(=O)N[C@@H](CCCNC(=N)N)C(=O)N[C@@H](CO)C(=O)N[C@@H](CC(=O)O)C(=O)N[C@H](C(=O)N[C@@H](CCCNC(=N)N)C(=O)N[C@@H](CCC(N)=O)C(=O)N[C@@H](CCC(N)=O)C(=O)N[C@@H](Cc1ccc(O)cc1)C(N)=O)[C@@H](C)O)[C@@H](C)O
On to B2, for which the Fold Shift of EC50 came out at 1.1 fold and the Inhibition of Maximal Response is -5.4%.

B3: Compound 58 (peptide)
peptide: Palmitoyl-RETNAGRSDTRQQYRKLLFS-NH2
SMILES: CCCCCCCCCCCCCCCC(=O)N[C@@H](CCCNC(=N)N)C(=O)N[C@@H](CCC(=O)O)C(=O)N[C@H](C(=O)N[C@@H](CC(N)=O)C(=O)N[C@@H](C)C(=O)NCC(=O)N[C@@H](CCCNC(=N)N)C(=O)N[C@@H](CO)C(=O)N[C@@H](CC(=O)O)C(=O)N[C@H](C(=O)N[C@@H](CCCNC(=N)N)C(=O)N[C@@H](CCC(N)=O)C(=O)N[C@@H](CCC(N)=O)C(=O)N[C@@H](Cc1ccc(O)cc1)C(=O)N[C@@H](CCCNC(=N)N)C(=O)N[C@@H](CCCCN)C(=O)N[C@@H](CC(C)C)C(=O)N[C@@H](CC(C)C)C(=O)N[C@@H](Cc1ccccc1)C(=O)N[C@@H](CO)C(N)=O)[C@@H](C)O)[C@@H](C)O
As to B3, the Fold Shift of EC50 was found to be 17.7 fold and the Inhibition of Maximal Response is 0.0367.

B4: Compound 54 (peptide)
peptide: Palmitoyl-NIVRVLATKLRETNAGR-NH2
SMILES: CCCCCCCCCCCCCCCC(=O)N[C@@H](CC(N)=O)C(=O)N[C@H](C(=O)N[C@H](C(=O)N[C@@H](CCCNC(=N)N)C(=O)N[C@H](C(=O)N[C@@H](CC(C)C)C(=O)N[C@@H](C)C(=O)N[C@H](C(=O)N[C@@H](CCCCN)C(=O)N[C@@H](CC(C)C)C(=O)N[C@@H](CCCNC(=N)N)C(=O)N[C@@H](CCC(=O)O)C(=O)N[C@H](C(=O)N[C@@H](CC(N)=O)C(=O)N[C@@H](C)C(=O)NCC(=O)N[C@@H](CCCNC(=N)N)C(N)=O)[C@@H](C)O)[C@@H](C)O)C(C)C)C(C)C)[C@@H](C)CC
For B4, the Fold Shift of EC50 came out at 0.7 fold and the Inhibition of Maximal Response was 17.5%.

B5: Compound 56 (peptide)
peptide: Palmitoyl-DTRQQYRKLLKSTL-NH2
SMILES: CCCCCCCCCCCCCCCC(=O)N[C@@H](CC(=O)O)C(=O)N[C@H](C(=O)N[C@@H](CCCNC(=N)N)C(=O)N[C@@H](CCC(N)=O)C(=O)N[C@@H](CCC(N)=O)C(=O)N[C@@H](Cc1ccc(O)cc1)C(=O)N[C@@H](CCCNC(=N)N)C(=O)N[C@@H](CCCCN)C(=O)N[C@@H](CC(C)C)C(=O)N[C@@H](CC(C)C)C(=O)N[C@@H](CCCCN)C(=O)N[C@@H](CO)C(=O)N[C@H](C(=O)N[C@@H](CC(C)C)C(N)=O)[C@@H](C)O)[C@@H](C)O
With B5, the Fold Shift of EC50 was found to be 1.9 fold and the Inhibition of Maximal Response is -30.4%.

B6: Compound 61 (peptide)
peptide: Palmitoyl-RETNAGRSDTRQQYRF-NH2
SMILES: CCCCCCCCCCCCCCCC(=O)N[C@@H](CCCNC(=N)N)C(=O)N[C@@H](CCC(=O)O)C(=O)N[C@H](C(=O)N[C@@H](CC(N)=O)C(=O)N[C@@H](C)C(=O)NCC(=O)N[C@@H](CCCNC(=N)N)C(=O)N[C@@H](CO)C(=O)N[C@@H](CC(=O)O)C(=O)N[C@H](C(=O)N[C@@H](CCCNC(=N)N)C(=O)N[C@@H](CCC(N)=O)C(=O)N[C@@H](CCC(N)=O)C(=O)N[C@@H](Cc1ccc(O)cc1)C(=O)N[C@@H](CCCNC(=N)N)C(=O)N[C@@H](Cc1ccccc1)C(N)=O)[C@@H](C)O)[C@@H](C)O
As to B6, the Fold Shift of EC50 came to 0.7 fold and the Inhibition of Maximal Response was -47.6%.

B7: Compound 64 (peptide)
peptide: Palmitoyl-TNAGRSDTRQQYRKLLKS-NH2
SMILES: CCCCCCCCCCCCCCCC(=O)N[C@H](C(=O)N[C@@H](CC(N)=O)C(=O)N[C@@H](C)C(=O)NCC(=O)N[C@@H](CCCNC(=N)N)C(=O)N[C@@H](CO)C(=O)N[C@@H](CC(=O)O)C(=O)N[C@H](C(=O)N[C@@H](CCCNC(=N)N)C(=O)N[C@@H](CCC(N)=O)C(=O)N[C@@H](CCC(N)=O)C(=O)N[C@@H](Cc1ccc(O)cc1)C(=O)N[C@@H](CCCNC(=N)N)C(=O)N[C@@H](CCCCN)C(=O)N[C@@H](CC(C)C)C(=O)N[C@@H](CC(C)C)C(=O)N[C@@H](CCCCN)C(=O)N[C@@H](CO)C(N)=O)[C@@H](C)O)[C@@H](C)O
B7: the Fold Shift of EC50 turned out to be 7 fold and the Inhibition of Maximal Response was -0.1%.

B8: Compound 57 (peptide)
peptide: Palmitoyl-RQQYRKLLKSTL-NH2
SMILES: CCCCCCCCCCCCCCCC(=O)N[C@@H](CCCNC(=N)N)C(=O)N[C@@H](CCC(N)=O)C(=O)N[C@@H](CCC(N)=O)C(=O)N[C@@H](Cc1ccc(O)cc1)C(=O)N[C@@H](CCCNC(=N)N)C(=O)N[C@@H](CCCCN)C(=O)N[C@@H](CC(C)C)C(=O)N[C@@H](CC(C)C)C(=O)N[C@@H](CCCCN)C(=O)N[C@@H](CO)C(=O)N[C@H](C(=O)N[C@@H](CC(C)C)C(N)=O)[C@@H](C)O
As for B8, the Fold Shift of EC50 is 15.6 fold and the Inhibition of Maximal Response is -38.8%.

B9: Compound 65 (peptide)
peptide: Palmitoyl-AGRSDTRQQYRKLLKS-NH2
SMILES: CCCCCCCCCCCCCCCC(=O)N[C@@H](C)C(=O)NCC(=O)N[C@@H](CCCNC(=N)N)C(=O)N[C@@H](CO)C(=O)N[C@@H](CC(=O)O)C(=O)N[C@H](C(=O)N[C@@H](CCCNC(=N)N)C(=O)N[C@@H](CCC(N)=O)C(=O)N[C@@H](CCC(N)=O)C(=O)N[C@@H](Cc1ccc(O)cc1)C(=O)N[C@@H](CCCNC(=N)N)C(=O)N[C@@H](CCCCN)C(=O)N[C@@H](CC(C)C)C(=O)N[C@@H](CC(C)C)C(=O)N[C@@H](CCCCN)C(=O)N[C@@H](CO)C(N)=O)[C@@H](C)O
Take B9: the Fold Shift of EC50 amounted to 14.7 fold and the Inhibition of Maximal Response was -0.359.

B10: Compound 59 (peptide)
peptide: Palmitoyl-RETNAGRSDTRQQYRKLL-NH2
SMILES: CCCCCCCCCCCCCCCC(=O)N[C@@H](CCCNC(=N)N)C(=O)N[C@@H](CCC(=O)O)C(=O)N[C@H](C(=O)N[C@@H](CC(N)=O)C(=O)N[C@@H](C)C(=O)NCC(=O)N[C@@H](CCCNC(=N)N)C(=O)N[C@@H](CO)C(=O)N[C@@H](CC(=O)O)C(=O)N[C@H](C(=O)N[C@@H](CCCNC(=N)N)C(=O)N[C@@H](CCC(N)=O)C(=O)N[C@@H](CCC(N)=O)C(=O)N[C@@H](Cc1ccc(O)cc1)C(=O)N[C@@H](CCCNC(=N)N)C(=O)N[C@@H](CCCCN)C(=O)N[C@@H](CC(C)C)C(=O)N[C@@H](CC(C)C)C(N)=O)[C@@H](C)O)[C@@H](C)O
In the case of B10, the Fold Shift of EC50 worked out at 5.2 fold and the Inhibition of Maximal Response stood at 3%.

B11: Compound 60 (peptide)
peptide: Palmitoyl-RETNAGRSDTRQQYRK-NH2
SMILES: CCCCCCCCCCCCCCCC(=O)N[C@@H](CCCNC(=N)N)C(=O)N[C@@H](CCC(=O)O)C(=O)N[C@H](C(=O)N[C@@H](CC(N)=O)C(=O)N[C@@H](C)C(=O)NCC(=O)N[C@@H](CCCNC(=N)N)C(=O)N[C@@H](CO)C(=O)N[C@@H](CC(=O)O)C(=O)N[C@H](C(=O)N[C@@H](CCCNC(=N)N)C(=O)N[C@@H](CCC(N)=O)C(=O)N[C@@H](CCC(N)=O)C(=O)N[C@@H](Cc1ccc(O)cc1)C(=O)N[C@@H](CCCNC(=N)N)C(=O)N[C@@H](CCCCN)C(N)=O)[C@@H](C)O)[C@@H](C)O
For B11, the Fold Shift of EC50 was 3.3 fold and the Inhibition of Maximal Response is 4.3%.

B12: Compound 66 (peptide)
peptide: Palmitoyl-RSDTRQQYRKLLKS-NH2
SMILES: CCCCCCCCCCCCCCCC(=O)N[C@@H](CCCNC(=N)N)C(=O)N[C@@H](CO)C(=O)N[C@@H](CC(=O)O)C(=O)N[C@H](C(=O)N[C@@H](CCCNC(=N)N)C(=O)N[C@@H](CCC(N)=O)C(=O)N[C@@H](CCC(N)=O)C(=O)N[C@@H](Cc1ccc(O)cc1)C(=O)N[C@@H](CCCNC(=N)N)C(=O)N[C@@H](CCCCN)C(=O)N[C@@H](CC(C)C)C(=O)N[C@@H](CC(C)C)C(=O)N[C@@H](CCCCN)C(=O)N[C@@H](CO)C(N)=O)[C@@H](C)O
In the case of B12, the Fold Shift of EC50 is 16.4 fold and the Inhibition of Maximal Response is -39%.

B13: Compound 55 (peptide)
peptide: Palmitoyl-NIVRVLATKLRE-NH2
SMILES: CCCCCCCCCCCCCCCC(=O)N[C@@H](CC(N)=O)C(=O)N[C@H](C(=O)N[C@H](C(=O)N[C@@H](CCCNC(=N)N)C(=O)N[C@H](C(=O)N[C@@H](CC(C)C)C(=O)N[C@@H](C)C(=O)N[C@H](C(=O)N[C@@H](CCCCN)C(=O)N[C@@H](CC(C)C)C(=O)N[C@@H](CCCNC(=N)N)C(=O)N[C@@H](CCC(=O)O)C(N)=O)[C@@H](C)O)C(C)C)C(C)C)[C@@H](C)CC
Take B13: the Fold Shift of EC50 stood at 0.6 fold and the Inhibition of Maximal Response is 26.1%.
